Assay results taken from the supplement of paper PMC9112550, “Optimization of the antimicrobial peptide Bac7 by deep mutational scanning” (BMC Biology, 2022).

Test system: Escherichia coli TOP10
Assay: shrunken log2 fold change of peptide-encoding DNA abundance (4.5 h post-induction vs induction); higher = less antimicrobial activity (less host growth inhibition)
Conditions: time post-induction: 4.5 h; library: site-saturation at positions 5, 18, 19, 20
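Further: peptides expressed intracellularly from a pBAD plasmid library in pooled LB shake-flask culture, induced with 0.3% L-arabinose, DNA abundance read by NGS, three biological replicates, DESeq2 with apeglm shrinkage.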

Sequence | shrunken log2 fold change
RRIRCRPPRLPRPRPRPTADPRP | 0.363
RRIRVRPPRLPRPRPRPPVEPRP | 0.424
RRIRKRPPRLPRPRPRPTSHPRP | 0.37
RRIRPRPPRLPRPRPRPTLHPRP | 0.0853
RRIRYRPPRLPRPRPRPTKIPRP | -0.373
RRIRFRPPRLPRPRPRPRHNPRP | -0.275
RRIRKRPPRLPRPRPRPSQLPRP | 0.141
RRIRPRPPRLPRPRPRPVCGPRP | 0.208
RRIRHRPPRLPRPRPRPIKKPRP | -0.06
RRIRIRPPRLPRPRPRPCCNPRP | -0.0118
RRIRVRPPRLPRPRPRPAFCPRP | 0.185
RRIRSRPPRLPRPRPRPQLYPRP | -0.071
RRIRMRPPRLPRPRPRPAVTPRP | 0.177
RRIRTRPPRLPRPRPRPKEMPRP | -0.0567
RRIRKRPPRLPRPRPRPWCMPRP | 0.183
RRIRQRPPRLPRPRPRPPCDPRP | -0.0587
RRIRLRPPRLPRPRPRPRWVPRP | 0.237
RRIRGRPPRLPRPRPRPFHYPRP | -0.383
RRIRVRPPRLPRPRPRPRGYPRP | -0.068
RRIRSRPPRLPRPRPRPLFPPRP | -0.00148
RRIRRRPPRLPRPRPRPHMTPRP | 0.00051
RRIRYRPPRLPRPRPRPEIPPRP | 0.0336
RRIRQRPPRLPRPRPRPAPAPRP | 0.707
RRIRKRPPRLPRPRPRPISDPRP | -0.0768
RRIRSRPPRLPRPRPRPCTYPRP | -0.454

Sequence | shrunken log2 fold change
RRIRDRPPRLPRPRPRPASPPRP | 0.384
RRIRIRPPRLPRPRPRPQPGPRP | 0.116
RRIRMRPPRLPRPRPRPFSAPRP | 0.138
RRIRMRPPRLPRPRPRPAPAPRP | 1.53
RRIRKRPPRLPRPRPRPVEAPRP | 0.657
RRIRWRPPRLPRPRPRPLSGPRP | 0.34
RRIRCRPPRLPRPRPRPRTVPRP | 0.0809
RRIRWRPPRLPRPRPRPMSWPRP | 0.0971
RRIRQRPPRLPRPRPRPLLWPRP | 0.091
RRIRRRPPRLPRPRPRPSHAPRP | 0.232
RRIRIRPPRLPRPRPRPVISPRP | -0.43
RRIRQRPPRLPRPRPRPYIAPRP | 0.0259
RRIRIRPPRLPRPRPRPNDRPRP | -0.0756
RRIRDRPPRLPRPRPRPWSKPRP | -0.203
RRIRERPPRLPRPRPRPHPYPRP | -0.103
RRIRIRPPRLPRPRPRPSFCPRP | -0.656
RRIRRRPPRLPRPRPRPKVNPRP | 0.468
RRIRARPPRLPRPRPRPSTMPRP | -0.237
RRIRERPPRLPRPRPRPLTSPRP | -0.00875
RRIRNRPPRLPRPRPRPLPSPRP | 1.86
RRIRMRPPRLPRPRPRPDPQPRP | 0.593
RRIRGRPPRLPRPRPRPKKIPRP | 0.494
RRIRTRPPRLPRPRPRPLFIPRP | -0.746
RRIRCRPPRLPRPRPRPKDHPRP | 0.0424
RRIRYRPPRLPRPRPRPLFVPRP | -0.507

Sequence | shrunken log2 fold change
RRIRRRPPRLPRPRPRPRDLPRP | 0.427
RRIRYRPPRLPRPRPRPNMFPRP | -0.186
RRIRCRPPRLPRPRPRPTCKPRP | -0.184
RRIRMRPPRLPRPRPRPQAMPRP | 0.318
RRIRERPPRLPRPRPRPLQCPRP | -0.254
RRIRVRPPRLPRPRPRPPHWPRP | 0.489
RRIRTRPPRLPRPRPRPLSQPRP | -0.0906
RRIRVRPPRLPRPRPRPFNQPRP | -0.19
RRIRVRPPRLPRPRPRPNQLPRP | -0.188
RRIRERPPRLPRPRPRPIVYPRP | 0.0176
RRIRTRPPRLPRPRPRPMREPRP | 0.864
RRIRQRPPRLPRPRPRPNQNPRP | -0.24
RRIRPRPPRLPRPRPRPVPHPRP | 0.0546
RRIRMRPPRLPRPRPRPKMHPRP | 0.42
RRIRQRPPRLPRPRPRPCQDPRP | 0.0207
RRIRYRPPRLPRPRPRPKRYPRP | -0.0281
RRIRNRPPRLPRPRPRPYQPPRP | -0.31
RRIRFRPPRLPRPRPRPNSRPRP | -0.0396
RRIRPRPPRLPRPRPRPVGVPRP | 0.52
RRIRWRPPRLPRPRPRPFWEPRP | 0.121
RRIRARPPRLPRPRPRPASGPRP | 1.35
RRIRYRPPRLPRPRPRPTCLPRP | -0.821
RRIRLRPPRLPRPRPRPNWTPRP | -0.084
RRIRERPPRLPRPRPRPSNIPRP | -0.662
RRIRARPPRLPRPRPRPAYYPRP | -0.166
